Target: HIF1α (hypoxia-inducible factor 1 alpha) (UniProt Q16665)
Assay: cell-based or functional assay

- HIF1α activity measured in Luciferase units from the HRE-Luc reporter, 293T cells in normoxia, co-transfected with CMV-HIF and CMV-SVFL1 (CMV-HIF with HRE-Luc alone: 20953 Luciferase units) (Luciferase units): 918
Substance: EGL nine (C.elegans) homolog 3 (EGLN3), full length (from UniProt Q9H6Z9 1-239)
